Data reported in patent publication US20240254229A1 (Molecular Partners, published 2024).

T1: extracellular domain of human CD70 (SEQ ID NO: 89), hCD70-Fc-trimer, ACRO Biosystems (human, UniProt P32970 52-193, chemically biotinylated where the biotinylated form was used)
T1 construct: also called human CD70-Fc-trimer; Bio.CD70
T1 sequence: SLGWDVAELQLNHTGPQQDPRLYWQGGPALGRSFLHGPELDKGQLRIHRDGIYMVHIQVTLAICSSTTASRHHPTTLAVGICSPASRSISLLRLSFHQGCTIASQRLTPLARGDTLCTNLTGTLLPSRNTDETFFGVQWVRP

T2: biotinylated extracellular domain of human CD123 (SEQ ID NO: 88), Fc and Avi tagged (human, UniProt P26951 19-303, biotinylated with BirA-GST (Avi tag))
T2 construct: also called hCD123
T2 sequence: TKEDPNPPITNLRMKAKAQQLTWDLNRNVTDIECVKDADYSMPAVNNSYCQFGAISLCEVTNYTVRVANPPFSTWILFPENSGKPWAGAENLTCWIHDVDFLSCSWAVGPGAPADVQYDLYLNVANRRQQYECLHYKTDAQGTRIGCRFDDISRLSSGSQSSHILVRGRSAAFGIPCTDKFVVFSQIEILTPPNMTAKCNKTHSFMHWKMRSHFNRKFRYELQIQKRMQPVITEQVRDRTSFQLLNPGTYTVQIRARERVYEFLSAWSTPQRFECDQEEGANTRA


Assays:
[1] = target: T1, extracellular domain of human CD70 (SEQ …); assay: SPR (ProteOn XPR36), target on GLC chip
Description: (§1) For that, DARPin® protein #27, DARPin® protein #29, DARPin® protein #47 and DARPin® protein #48 and DARPin® protein #49, DARPin® protein #50, DARPin® protein #51, DARPin® protein #52, DARPin® protein #31, DARPin® protein #53, DARPin® protein #54, DARPin® protein #55, DARPin® protein #34, DARPin® protein #33, DARPin® protein #39 and DARPin® protein #36 were subcloned and expressed as described above into derivatives of the pQE30 (Qiagen) expression vector, containing an N-terminal His-tag, CD33, CD123 and/or CD70 binding ankyrin repeat domains, followed by a CD3 specific ankyrin repeat domain and for some constructs by a human serum albumin specific ankyrin repeat domain.
(§2) Briefly, biotinylated human CD70, CD123 and CD33 was diluted in PBST (PBS, pH 7.4 containing 0.005% Tween 20®) and coated on a GLC chip (BioRad) to a level of around 200, 460 and 450 resonance units (RU) respectively. HSA in NaOAc pH 5.0 was directly immobilized on the GLC chip to a level of 800 RU. Bio.CD70, bio. CD33 and bio. CD123 required to have Neutravidin coated first to a level of 6000 RU before the biotinylated targets could be applied. The interaction of the selected ankyrin repeat proteins and human CD70, CD123 and CD33 was then measured by injecting 300 μl running buffer (PBS, pH 7.4 containing 0.005% Tween 20®) containing serial dilutions of ankyrin repeat proteins covering a concentration range between 100 nM and 2.6 nM (100, 40, 16, 6.4 and 2.6 nM respectively) for multi-trace SPR measurements, with an association of 120 s and dissociation of 1200 s using a constant flow of 100 μl/min. The regeneration was performed using 30 μl of 4 mM Glycine pH 2. The signals (i.e. resonance unit (RU) values) of the interspots and a reference injection (i.e. injection of running buffer only) were subtracted from the RU traces obtained after injection of ankyrin repeat protein (double-referencing).

[2] = target: T3, human serum albumin (human, UniProt P02768 25-609); assay: SPR (ProteOn XPR36), target on GLC chip, DARPin as analyte
T3 construct: also called HSA; SA
T3 sequence (P02768 25-609 limits assumed): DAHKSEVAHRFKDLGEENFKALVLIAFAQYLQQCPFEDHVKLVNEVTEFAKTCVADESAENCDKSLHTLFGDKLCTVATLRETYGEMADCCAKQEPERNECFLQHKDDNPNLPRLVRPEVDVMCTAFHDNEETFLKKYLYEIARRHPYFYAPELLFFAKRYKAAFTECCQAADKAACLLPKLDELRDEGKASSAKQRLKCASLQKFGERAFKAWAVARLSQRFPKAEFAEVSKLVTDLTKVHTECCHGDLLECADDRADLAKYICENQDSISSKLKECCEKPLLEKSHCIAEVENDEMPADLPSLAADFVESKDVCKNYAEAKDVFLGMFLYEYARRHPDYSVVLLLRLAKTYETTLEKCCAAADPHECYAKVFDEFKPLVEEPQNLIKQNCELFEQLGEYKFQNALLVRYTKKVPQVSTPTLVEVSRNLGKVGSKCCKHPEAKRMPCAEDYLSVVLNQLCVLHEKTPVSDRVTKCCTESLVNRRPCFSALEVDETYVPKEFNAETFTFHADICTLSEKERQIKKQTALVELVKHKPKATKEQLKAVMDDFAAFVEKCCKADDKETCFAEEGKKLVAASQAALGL
Description: as §1, §2

[3] = target: T4, biotinylated extracellular domain of human CD33 (SEQ ID NO: 87), Fc and Avi tagged (human, UniProt P20138 18-259, biotinylated with BirA-GST (Avi tag)); assay: as above
T4 construct: also called hCD33; human target hCD33
T4 sequence (P20138 18-259 R69G): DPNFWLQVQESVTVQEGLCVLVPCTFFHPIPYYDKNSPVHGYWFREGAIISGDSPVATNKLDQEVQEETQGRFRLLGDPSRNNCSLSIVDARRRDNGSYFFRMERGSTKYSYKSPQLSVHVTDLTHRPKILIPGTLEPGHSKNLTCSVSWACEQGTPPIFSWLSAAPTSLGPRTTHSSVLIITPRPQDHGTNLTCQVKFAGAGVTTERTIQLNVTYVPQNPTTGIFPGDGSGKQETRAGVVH
Description: as §1, §2

[4] = target: T2, biotinylated extracellular domain of …; assay: as above
Description: as §1, §2

[5] = target: T3, human serum albumin; assay: SPR (ProteOn XPR36), target on GLC chip
Description: as §1, §2

[6] = target: T2, biotinylated extracellular domain of …; assay: SPR (ProteOn XPR36), target on GLC chip
Description: as §1, §2

[7] = target: T1, extracellular domain of human CD70 (SEQ …); assay: SPR (ProteOn XPR36), target on GLC chip, DARPin as analyte
Description: as §1, §2

Row | Binder | Kd [2] | Kd [3] | Kd [4] | Kd [7] | binding result [1] | binding result [5] | binding result [6]
1 | DARPin® protein #49 (designed binder, CD123-CD33-CD3-HSA; not shown: N-terminal His-tag) DLGKKLLEAALEGQLDEVRELLKAGADVNAKDQEGYTPLHLAAALGHLEIVEVLLKAGADVNAKDSIGRTPLHLAAYKGHLEIVEVLLKAGADVNAQDLLGETPADLAAEQGHQDIAEVLQKAAGSPTPTPTTPTPTPTTPTPTPTGSDLGVKLLLAASRGQLDEVRILLKAGADVNAKDIDEGYTPLHIAAYYGHLEIVEVLLKAGADVNAKDRYGKTPLHLAAISGHLEIVEVLLKAGADVNAQDDKGDTPADLAADYGHQDIAEVLQKAAGSPTPTPTTPTPTPTTPTPTPTGSDLGQKLLEAAWAGQDDEVRELLKAGADVNAKNSRGWTPLHTAAQTGHLEIFEVLLKAGADVNAKDDKGVTPLHLAAALGHLEIVEVLLKAGADVNAQDSWGTTPADLAAKYGHEDIAEVLQKAAGSPTPTPTTPTPTPTTPTPTPTGSDLGKKLLEAARAGQDDEVRELLKAGADVNAKDYFSHTPLHLAARNGHLKIVEVLLKAGADVNAKDFAGKTPLHLAAADGHLEIVEVLLKAGADVNAQDIFGKTPADIAADAGHEDIAEVLQKAA | 14 nM | 6.8 nM | 23 nM | – | no binding (tested: 100 nM (highest concentration)) | – | –
2 | DARPin® protein #36 (designed binder, CD33-specific ankyrin repeat domain; not shown: N-terminal His-tag) DLGVKLLLAASRGQLDEVRILLKAGADVNAKDIDEGYTPLHIAAYYGHLEIVEVLLKAGADVNAKDRYGKTPLHLAAISGHLEIVEVLLKAGADVNAQDDKGDTPADLAADYGHQDIAEVLQKAA | – | 6.7 nM | – | – | no binding (tested: 100 nM (highest concentration)) | no binding (tested: 100 nM (highest concentration)) | no binding (tested: 100 nM (highest concentration))
3 | DARPin® protein #52 (designed binder, not shown: N-terminal His-tag) DLGYKLLQAAYDGQLDEVRILLKAGADVNAKDSRGQTPLHYAASIGHLEIVEVLLKAGADVNAKDDHGWTPLHLAAWSGHLEIVEVLLKAGADVNAQDQEGTTPADLAAVQGHQDIAEVLQKAAGSPTPTPTTPTPTPTTPTPTPTGSDLGVKLLLAASRGQLDEVRILLKAGADVNAKDIDEGYTPLHIAAYYGHLEIVEVLLKAGADVNAKDRYGKTPLHLAAISGHLEIVEVLLKAGADVNAQDDKGDTPADLAADYGHQDIAEVLQKAAGSPTPTPTTPTPTPTTPTPTPTGSDLGQKLLEAAWAGQDDEVRELLKAGADVNAKNSRGWTPLHTAAQTGHLEIFEVLLKAGADVNAKDDKGVTPLHLAAALGHLEIVEVLLKAGADVNAQDSWGTTPADLAAKYGHEDIAEVLQKAAGSPTPTPTTPTPTPTTPTPTPTGSDLGKKLLEAARAGQDDEVRELLKAGADVNAKDYFSHTPLHLAARNGHLKIVEVLLKAGADVNAKDFAGKTPLHLAAADGHLEIVEVLLKAGADVNAQDIFGKTPADIAADAGHEDIAEVLQKAA | 48 nM | 5.7 nM | – | 0.27 nM | – | – | no binding (tested: 100 nM (highest concentration))
4 | DARPin® protein #39 (designed binder, CD33-specific ankyrin repeat domain; not shown: N-terminal His-tag) DLGVKLLRAAVHGQLDEVRILLKAGADVNAKDTDGETPLHYAAQFGHLEIVEVLLKAGADVNAKDAYGATPLHWAAWHGHLEIVEVLLKAGADVNAQDVSGATPADLAAKVGHQDIAEVLQKAA | – | 24 nM | – | – | no binding (tested: 100 nM (highest concentration)) | no binding (tested: 100 nM (highest concentration)) | no binding (tested: 100 nM (highest concentration))
5 | DARPin® protein #47 (designed binder, HSA-CD123-CD33-CD3; not shown: N-terminal His-tag) DLGKKLLEAARAGQDDEVRELLKAGADVNAKDYFSHTPLHLAARNGHLKIVEVLLKAGADVNAKDFAGKTPLHLAAADGHLEIVEVLLKAGADVNAQDIFGKTPADIAADAGHEDIAEVLQKAAGSPTPTPTTPTPTPTTPTPTPTGSDLGKKLLEAALEGQLDEVRELLKAGADVNAKDQEGYTPLHLAAALGHLEIVEVLLKAGADVNAKDSIGRTPLHLAAYKGHLEIVEVLLKAGADVNAQDLLGETPADLAAEQGHQDIAEVLQKAAGSPTPTPTTPTPTPTTPTPTPTGSDLGVKLLLAASRGQLDEVRILLKAGADVNAKDIDEGYTPLHIAAYYGHLEIVEVLLKAGADVNAKDRYGKTPLHLAAISGHLEIVEVLLKAGADVNAQDDKGDTPADLAADYGHQDIAEVLQKAAGSPTPTPTTPTPTPTTPTPTPTGSDLGQKLLEAAWAGQDDEVRELLKAGADVNAKNSRGWTPLHTAAQTGHLEIFEVLLKAGADVNAKDDKGVTPLHLAAALGHLEIVEVLLKAGADVNAQDSWGTTPADLAAKYGHEDIAEVLQKAA | 15 nM | 5.4 nM | 8 nM | – | no binding (tested: 100 nM (highest concentration)) | – | –

The next lines start with results.

Row | Kd [2] | Kd [3] | Kd [4] | Kd [7] | Binder | binding result [1] | binding result [5] | binding result [6]
6 | – | 11 nM | 10 nM | 0.31 nM | DARPin® protein #31 (designed binder, CD70-CD123-CD33-CD3; not shown: N-terminal His-tag) DLGYKLLQAAYDGQLDEVRILLKAGADVNAKDSRGQTPLHYAASIGHLEIVEVLLKAGADVNAKDDHGWTPLHLAAWSGHLEIVEVLLKAGADVNAQDQEGTTPADLAAVQGHQDIAEVLQKAAGSPTPTPTTPTPTPTTPTPTPTGSDLGKKLLEAALEGQLDEVRELLKAGADVNAKDQEGYTPLHLAAALGHLEIVEVLLKAGADVNAKDSIGRTPLHLAAYKGHLEIVEVLLKAGADVNAQDLLGETPADLAAEQGHQDIAEVLQKAAGSPTPTPTTPTPTPTTPTPTPTGSDLGVKLLRAAVHGQLDEVRILLKAGADVNAKDTDGETPLHYAAQFGHLEIVEVLLKAGADVNAKDAYGATPLHWAAWHGHLEIVEVLLKAGADVNAQDVSGATPADLAAKVGHQDIAEVLQKAAGSPTPTPTTPTPTPTTPTPTPTGSDLGQKLLEAAWAGQDDEVRELLKAGADVNAKNSRGWTPLHTAAQTGHLEIFEVLLKAGADVNAKDDKGVTPLHLAAALGHLEIVEVLLKAGADVNAQDSWGTTPADLAAKYGHEDIAEVLQKAA | – | no binding (tested: 100 nM (highest concentration)) | –
7 | 1.1 nM | 4.2 nM | 5.1 nM | – | DARPin® protein #48 (designed binder, HSA-HSA-CD123-CD33-CD3; not shown: N-terminal His-tag) DLGKKLLEAARAGQDDEVRELLKAGADVNAKDYFSHTPLHLAARNGHLKIVEVLLKAGADVNAKDFAGKTPLHLAAADGHLEIVEVLLKAGADVNAQDIFGKTPADIAADAGHEDIAEVLQKAAGSPTPTPTTPTPTPTTPTPTPTGSDLGKKLLEAARAGQDDEVRELLKAGADVNAKDYFSHTPLHLAARNGHLKIVEVLLKAGADVNAKDFAGKTPLHLAAADGHLEIVEVLLKAGADVNAQDIFGKTPADIAADAGHEDIAEVLQKAAGSPTPTPTTPTPTPTTPTPTPTGSDLGKKLLEAALEGQLDEVRELLKAGADVNAKDQEGYTPLHLAAALGHLEIVEVLLKAGADVNAKDSIGRTPLHLAAYKGHLEIVEVLLKAGADVNAQDLLGETPADLAAEQGHQDIAEVLQKAAGSPTPTPTTPTPTPTTPTPTPTGSDLGVKLLLAASRGQLDEVRILLKAGADVNAKDIDEGYTPLHIAAYYGHLEIVEVLLKAGADVNAKDRYGKTPLHLAAISGHLEIVEVLLKAGADVNAQDDKGDTPADLAADYGHQDIAEVLQKAAGSPTPTPTTPTPTPTTPTPTPTGSDLGQKLLEAAWAGQDDEVRELLKAGADVNAKNSRGWTPLHTAAQTGHLEIFEVLLKAGADVNAKDDKGVTPLHLAAALGHLEIVEVLLKAGADVNAQDSWGTTPADLAAKYGHEDIAEVLQKAA | no binding (tested: 100 nM (highest concentration)) | – | –
